Common to all, as to experiment: cell-based or functional assay
Experiment [1] deals with endogenous β-catenin in mouse aortic smooth muscle cells (MASMCs) (mouse) (UniProt Q02248).
Experiment [2] addresses Myc-tagged β-catenin.
Experiment [3] addresses endogenous β-catenin in rat vascular smooth muscle cells (RASMCs, A7r5) (rat) (UniProt Q9WU82).
Chain of UniProt Q9WU82 (Q9WU82 2-781): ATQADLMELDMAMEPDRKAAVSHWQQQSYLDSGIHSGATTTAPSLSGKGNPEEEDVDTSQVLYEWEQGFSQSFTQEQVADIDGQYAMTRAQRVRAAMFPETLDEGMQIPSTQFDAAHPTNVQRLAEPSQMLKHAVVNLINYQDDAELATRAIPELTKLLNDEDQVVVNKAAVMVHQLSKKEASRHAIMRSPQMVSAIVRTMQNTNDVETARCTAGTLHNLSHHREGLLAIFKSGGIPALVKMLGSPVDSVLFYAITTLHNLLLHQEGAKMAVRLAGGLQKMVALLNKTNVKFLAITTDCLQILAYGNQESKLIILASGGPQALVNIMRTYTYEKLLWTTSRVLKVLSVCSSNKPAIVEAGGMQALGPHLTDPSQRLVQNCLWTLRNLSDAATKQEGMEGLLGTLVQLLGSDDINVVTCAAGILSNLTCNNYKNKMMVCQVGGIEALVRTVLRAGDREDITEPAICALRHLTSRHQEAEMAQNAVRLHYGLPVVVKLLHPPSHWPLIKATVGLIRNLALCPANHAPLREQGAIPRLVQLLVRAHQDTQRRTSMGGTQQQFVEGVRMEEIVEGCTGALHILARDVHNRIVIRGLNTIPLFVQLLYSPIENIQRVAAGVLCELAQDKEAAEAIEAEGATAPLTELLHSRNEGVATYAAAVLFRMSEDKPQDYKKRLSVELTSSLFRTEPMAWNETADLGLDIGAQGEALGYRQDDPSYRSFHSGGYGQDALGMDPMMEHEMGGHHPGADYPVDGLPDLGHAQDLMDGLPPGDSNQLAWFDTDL

On to “endogenous Fat1 in mouse aortic smooth muscle cells (MASMCs)”, for which, in experiment [1], the LiCl-stimulated TCF/β-catenin transcriptional activation (Topflash) in MASMCs after Fat1 knockdown (% higher than control siRNA) was 30.
In experiment [2], FLAG-tagged N-cadherin (receptor) had an inhibition of β-catenin activation of Topflash (TCF-luciferase reporter) in A7r5 cells of 55%.
As to “IL2R-Fat1IC (from UniProt P01589 22-259)”, the nuclear β-catenin/lamin A/C ratio in fractionated, LiCl-treated A7r5 cells in experiment [3] amounted to 0.8. In experiment [2], this substance gave an inhibition of β-catenin activation of Topflash (TCF-luciferase reporter) in A7r5 cells of 40%.

(Values after patent US20090117169A1.)
